Publication PMC11257990, “Noncanonical assembly, neddylation and chimeric cullin–RING/RBR ubiquitylation by the 1.8 MDa CUL9 E3 ligase complex” (Nature Structural & Molecular Biology, 2024)

Target: T1, UBE2L3 (human, UniProt P68036 1-154)
T1 construct: UBE2L3, human; source: E. coli Rosetta 2 (DE3), purified (glutathione sepharose, TEV cleavage, ion exchange, SEC)
Test: ITC; E2 (300–500 μM) in the syringe, CUL9^ARIH-RBR (25 μM) in the cell; 25 °C; 25 mM HEPES pH 7.5, 150 mM NaCl, 0.5 mM TCEP; 19 × 2 μl injections; single-site model
Conditions: both partners purified

T1 sequence (P68036 whole entry): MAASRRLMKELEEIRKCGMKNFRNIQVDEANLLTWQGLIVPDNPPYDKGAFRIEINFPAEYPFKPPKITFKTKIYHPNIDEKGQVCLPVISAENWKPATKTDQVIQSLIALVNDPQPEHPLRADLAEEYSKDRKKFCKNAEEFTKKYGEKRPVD

B1: CUL9^ARIH-RBR (domain or fragment, human, UniProt Q8IWT3 1979-2517, looked up)
chain: SPEAVATLASLQLPAGRTMSPQEVEGLMKQTVRQVQETLNLEPDVAQHLLAHSHWGAEQLLQSYSEDPEPLLLAAGLCVHQAQAVPVRPDHCPVCVSPLGCDDDLPSLCCMHYCCKSCWNEYLTTRIEQNLVLNCTCPIADCPAQPTGAFIRAIVSSPEVISKYEKALLRGYVESCSNLTWCTNPQGCDRILCRQGLGCGTTCSKCGWASCFNCSFPEAHYPASCGHMSQWVDDGGYYDGMSVEAQSKHLAKLISKRCPSCQAPIEKNEGCLHMTCAKCNHGFCWRCLKSWKPNHKDYYNCSAMVSKAARQEKRFQDYNERCTFHHQAREFAVNLRNRVSAIHEVPPPRSFTFLNDACQGLEQARKVLAYACVYSFYSQDAEYMDVVEQQTENLELHTNALQILLEETLLRCRDLASSLRLLRADCLSTGMELLRRIQERLLAILQHSAQDFRVGLQSPSVEAWEAKGPNMPGSQPQASSGPEAEEEEEDDEDDVPEWQQDEFDEELDNDSFSYDESENLDQETFFFGDEEEDEDEAYD
notes: CUL9, human, ARIH-RBR element, residues 1979-2517; also called CUL9 RBR element; source: HEK293S, baculovirus infection, without RBX1, purified; not shown: TwinStrep, N-terminal, cleaved
**Q.** Does B1 bind?
**A.** binds
